Reference: patent US20190309065A1

Molecular target: human PD-L1 (human) (UniProt Q9NZQ7)
Experiment: cell-based or functional assay

Chain of UniProt Q9NZQ7 (Q9NZQ7 19-290): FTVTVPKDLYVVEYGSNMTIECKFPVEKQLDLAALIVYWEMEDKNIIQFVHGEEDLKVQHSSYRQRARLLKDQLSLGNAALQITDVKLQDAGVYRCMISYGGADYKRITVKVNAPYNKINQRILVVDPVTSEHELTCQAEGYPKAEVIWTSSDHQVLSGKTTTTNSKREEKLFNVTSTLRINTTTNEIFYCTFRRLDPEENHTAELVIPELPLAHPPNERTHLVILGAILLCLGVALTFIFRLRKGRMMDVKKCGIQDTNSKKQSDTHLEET

- fold increase in B*4201 TL9 tetramer+ CD8 T cells, 6-day CFSE proliferation assay of PBMC with TL9 peptide plus anti-PD-L1 blocking antibody (peptide alone: 4.8-fold): 10.3 fold
- percentage of B*4201 TL9-specific CD8 T cells after 6-day stimulation with peptide, in the presence of anti-PD-L1 blocking antibody (without it: 5.7%): 12.4%
B1: monoclonal antibody to human PD-L1, clone 29E.2A3 (mouse IgG2b) (antibody, from another filing, V domains shown)
VH: EVQLQQSGPELVKPGASVKMSCKASGYTFTSYVMHWVKQKPGQGLEWIGYVNPFNDGTKYNEMFKGKATLTSDKSSSTAYMELSSLTSEDSAVYYCARQAWGYPWGQGTLVTVSA
VL: DIVLTQSPASLAVSLGQRATISCRATESVEYYGTSLVQWYQQKPGQPPKLLIYAASSVDSGVPARFSGSGSGTDFSLTIHPVEEDDIAMYFCQQSRRVPYTFGGGTKLEIK
